Assay results reported in paper PMC8154891, “TAPBPR promotes antigen loading on MHC-I molecules using a peptide trap” (Nature Communications, 2021).
“And” between values parts separate entries of the source, which are not always exact repeats. Identical values can stand only once.

Assays:
[1] = target: T1, peptide-deficient HLA-A*02:01/hβ2m/TAPBPR^ΔG24-R36 complex (Homo sapiens, UniProt P04439, D140Y/D185E/D98H/E176V/E277Q/G131W/G231S/I119V/I121R/I166T/I218V/L300P/L318F/N151K/N90K/P208A/P217A/Q86G/Q94H/R138H/R169H/T345S); test: ITC, KD4: peptide titrated into empty HLA-A*02:01/TAPBPR^ΔG24-R36 complex with excess TAPBPR; format: binding; details: ~150–200 μM peptide into ~15 μM peptide-deficient complex and 50 μM excess TAPBPR, pH 7.2, one-site fit, error from fit
T1 construct: DNA plasmid constructs encoding the luminal domain of human HLA-A*02:01 (heavy chain); made in house

[2] = target: T2, HLA-A*02:01/hβ2m (empty MHC-I released from TAPBPR^ΔG24-R36 complex) (Homo sapiens, UniProt P04439, D140Y/D185E/D98H/E176V/E277Q/G131W/G231S/I119V/I121R/I166T/I218V/L300P/L318F/N151K/N90K/P208A/P217A/Q86G/Q94H/R138H/R169H/T345S); test: ITC, KD2,app: peptide titrated into peptide-deficient HLA-A*02:01/hβ2m/TAPBPR^ΔG24-R36 complex, no excess TAPBPR; format: binding; details: ~50–100 μM peptide into ~15 μM peptide-deficient complex, pH 7.2, one-site fit, one technical replicate, error from fit
T2 construct: DNA plasmid constructs encoding the luminal domain of human HLA-A*02:01 (heavy chain); made in house

[3] = target: T3, HLA-A*02:01/hβ2m (empty MHC-I released from TAPBPR^WT complex) (Homo sapiens, UniProt P04439, D140Y/D185E/D98H/E176V/E277Q/G131W/G231S/I119V/I121R/I166T/I218V/L300P/L318F/N151K/N90K/P208A/P217A/Q86G/Q94H/R138H/R169H/T345S); test: ITC, KD2,app: peptide titrated into peptide-deficient HLA-A*02:01/hβ2m/TAPBPR^WT complex, no excess TAPBPR; format: binding; details: ~50–100 μM peptide into ~15 μM peptide-deficient complex, 50 mM NaCl, 20 mM sodium phosphate pH 7.2, one-site fit, one technical replicate, error from fit
T3 construct: DNA plasmid constructs encoding the luminal domain of human HLA-A*02:01 (heavy chain); made in house; TAPBPR: Drosophila S2 cells

[4] = target: T4, peptide-deficient HLA-A*02:01/hβ2m/TAPBPR^WT complex (Homo sapiens, UniProt P04439, D140Y/D185E/D98H/E176V/E277Q/G131W/G231S/I119V/I121R/I166T/I218V/L300P/L318F/N151K/N90K/P208A/P217A/Q86G/Q94H/R138H/R169H/T345S); test: ITC, KD4: peptide titrated into empty HLA-A*02:01/TAPBPR^WT complex with excess TAPBPR; format: binding; details: ~150–200 μM peptide into ~15 μM peptide-deficient complex and 50 μM excess TAPBPR, pH 7.2, one-site fit, error from fit
T4 construct: DNA plasmid constructs encoding the luminal domain of human HLA-A*02:01 (heavy chain); made in house; TAPBPR: Drosophila S2 cells

HLA-A*02:01/hβ2m = details: DSF, 7 μM HLA-A*02:01/hβ2m in complex with the peptide, 10× SYPRO orange, 1 °C/min, pH 7.2; n = 3 technical replicates
[5] = target: TAMRA-TAX9 in complex with HLA-A*02:01 (hβ2m) (human | HTLV-1); test: fluorescence polarisation
[6] = target: peptide-deficient (empty) HLA-A*02:01/hβ2m (human); test: ITC
[7] = target: TAPBPR^WT (TAP-binding protein related, wild-type, luminal domain) (human); test: ITC
[8] = target: TAPBPR^ΔG24-R36 (luminal domain, deletion of residues G24-R36) (human); test: ITC
HLA-A*01:01 = HLA-A*01:01 (Homo sapiens, UniProt P04439, A114D/A174V/A182V/D101N/D185E/E176A/E190D/L180R/Q94H/R68K/S129P/T187R/V100A/V91M/W191G); details: yeast-displayed TAPBPR, flow cytometry
MHC-I = details: read-out: estimated KD of the MHC-I/TAPBPR interaction; SPR experiments of an analogous system; cited from earlier work
TAX8/HLA-A*02:01/hβ2m = test: FP, KD3: TAPBPR titrated into TAMRA-TAX9 and TAX8/HLA-A*02:01/hβ2m; format: binding, human; details: TAPBPR (0–80 μM) titrated into 1 nM TAMRA-TAX9 and 50 nM TAX8/HLA-A*02:01/hβ2m; 25 °C, pH 7.2, 0.05% tween-20; read-out: KD3 from FP

CC[C@H](C)[C@H](NC(=O)[C@H](CCC(=O)O)NC(=O)[C@H](CC(C)C)NC(=O)[C@H](CC(C)C)NC(=O)[C@@H](N)CCCCN)C(=O)N1CCC[C@H]1C(=O)N[C@@H](CC(=O)O)C(=O)N1CCC[C@H]1C(=O)N[C@@H](CC(=O)O)C(=O)N[C@@H](CCCCN)C(=O)N[C@@H](CC(N)=O)C(=O)N[C@@H](Cc1c[nH]c2ccccc12)C(=O)N[C@@H](C)C(=O)N[C@H](C(=O)N[C@@H](CC(C)C)C(=O)O)[C@@H](C)O [KLL15]
Kd [1]: 49500 ± 8600 nM | Kd [2]: 334 ± 20 nM | Kd [3]: 383 ± 22 nM | Kd [4]: 21600 ± 7000 nM

LLFGGGGYPVYV [TAX12]
Tm of pMHC-I complex (HLA-A*02:01/hβ2m): 53.2 °C

LLFGGYPVYV [TAX10]
Tm of pMHC-I complex (HLA-A*02:01/hβ2m): 58.9 °C

TAPBPR^WT (TAP-binding protein related, wild-type, luminal domain) (domain or fragment)
Kd [5]: 2000 nM | Kd [6]: 37.4 nM and 30.6 nM and 38.8 nM

TAPBPR^ΔALAS (luminal domain, deletion of residues A29-S32) (domain or fragment)
Kd [5]: 2000 nM

TAPBPR^ΔG24-R36 (luminal domain, deletion of residues G24-R36) (domain or fragment)
Kd [5]: 2000 nM | Kd [6]: 13.9 nM and 11.1 nM and 14.2 nM

TAX9/HLA-A*02:01/hβ2m (from UniProt P61769 21-119) (peptide-MHC)
Kd [7]: 1900 nM | stoichiometry N [7]: 1.02 | Kd [8]: 1800 nM

B1: TAPBPR WT: wild-type human TAPBPR; luminal domain from S2 cells in vitro, FLAG-tagged full length in Expi293F cells (protein, UniProt Q9BX59 19-468, looked up)
Tapasin-related protein: AETKPHPAEGQWRAVDVVLDCFLAKDGAHRGALASSEDRARASLVLKQVPVLDDGSLEDFTDFQGGTLAQDDPPIIFEASVDLVQIPQAEALLHADCSGKEVTCEISRYFLQMTETTVKTAAWFMANMQVSGGGPSISLVMKTPRVTKNEALWHPTLNLPLSPQGTVRTAVEFQVMTQTQSLSFLLGSSASLDCGFSMAPGLDLISVEWRLQHKGRGQLVYSWTAGQGQAVRKGATLEPAQLGMARDASLTLPGLTIQDEGTYICQITTSLYRAQQIIQLNIQASPKVRLSLANEALLPTLICDIAGYYPLDVVVTWTREELGGSPAQVSGASFSSLRQSVAGTYSISSSLTAEPGSAGATYTCQVTHISLEEPLGASTQVVPPERRTALGVIFASSLFLLALMFLGLQRRQAPTGLGLLQAERWETTSCADTQSSHLHEDRTARVSQPS
modifications: FLAG tag
binding of HLA-A*01:01 tetramers (HLA-A*01:01): No binding | Kd (MHC-I): ~190 nM | Kd (TAX8/HLA-A*02:01/hβ2m): ~2000 nM
